These results are taken from patent publication US20020098193A1.

Experiment [1] addresses T1, FcRn of neonatal mouse intestine (mouse) (UniProt Q61559).
T1 sequence (looked up): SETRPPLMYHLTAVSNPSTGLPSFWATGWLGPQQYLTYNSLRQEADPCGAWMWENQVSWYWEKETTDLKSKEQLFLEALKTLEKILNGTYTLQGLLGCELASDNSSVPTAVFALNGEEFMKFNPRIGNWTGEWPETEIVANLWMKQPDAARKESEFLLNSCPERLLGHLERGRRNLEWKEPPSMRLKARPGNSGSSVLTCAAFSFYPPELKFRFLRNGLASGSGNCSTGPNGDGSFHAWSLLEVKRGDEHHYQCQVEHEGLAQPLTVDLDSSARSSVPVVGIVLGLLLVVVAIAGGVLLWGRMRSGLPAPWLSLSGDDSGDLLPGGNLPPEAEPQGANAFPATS
T1 sequence (b2m, looked up): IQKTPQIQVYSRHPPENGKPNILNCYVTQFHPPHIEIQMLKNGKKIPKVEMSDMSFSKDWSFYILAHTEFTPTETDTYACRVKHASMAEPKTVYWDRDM
Kind of experiment: cell-based or functional assay.

Experiment [2] deals with recombinant soluble mouse FcRn (mouse) (UniProt Q61559). Nature of the experiment: inhibition of 125I-sFcRn binding to murine IgG1-Sepharose; molar ratio of inhibitor/FcRn given as 1/500.
For experiment [3] the target is unchanged. Kind of experiment: inhibition of 125I-sFcRn binding to murine IgG1-Sepharose; molar ratio of inhibitor/FcRn given as 1/1000.

B1: complete murine IgG1 molecule (antibody, part only; not given: variable domains and Fab arms, not shown: another chain or arm of the molecule)
Fc: VPRDCGCKPCICTVPEVSSVFIFPPKPKDVLTITLTPKVTCVVVDISKDDPEVQFSWFVDDVEVHTAQTQPREEQFNSTFRSVSELPIMHQDWLNGKEFKCRVNSAAFPAPIEKTISKTKGRPKAPQVYTIPPPKEQMAKDKVSLTCMITDFFPEDITVEWQWNGQPAENYKNTQPIMNTNGSYFVYSKLNVQKSNWEAGNTFTCSVLHEGLHNHHTEKSLSHSPGK
modifications: Glycosylated whole IgG1 from hybridoma or mammalian cells; used free, 125I-labelled or coupled to Sepharose. Two heavy chains are joined at the hinge.
For orientation: % inhibition means the relative decrease from the control value, in per cent. For the molecule B1, in experiment [1], the Inhibition of transmission (%) of radiolabeled mIgG1 across the intestine of neonatal mice is 51.4%. The % inhibition is 24.7% in experiment [2] and 45.6% in experiment [3].
